Measurements from publication PMC4851294 (PLoS ONE, 2016).

Tested on: O=C[C@H](O)[C@H](O)COP(=O)(O)O
Experiment: purified protein

Substance: 3-deoxy-D-arabino-heptulosonate 7-phosphate synthase (MtuDAH7PS) (Mycobacterium tuberculosis H37Rv)
- Km: 28 ± 2 µM
- kcat: 4.7 ± 0.1 s⁻¹
- kcat/Km: 170000 ± 20000 M⁻¹ s⁻¹
